This note sets out measurements from patent publication US20260117244A1, “INHIBITORY RNA FOR THE CONTROL OF PHYTOPATHOGENS” (priority 2021, published 2026).

The test system of series [1] is grapevine powdery mildew E. necator. Kind of series: Vineyard field trials of topical dsRNA: powdery mildew disease incidence and disease severity (Kearney and Armstrong sites). The conditions noted are these: for powdery mildew disease incidence: Chenin Blanc, 3 weeks after end of treatments (June 23), untreated ~80%; for mean disease severity (percent of berries with powdery mildew per bunch): June 28, almost 4 weeks post dsRNA treatment, untreated 12%. Type of series: in vivo, Erysiphe necator. Here is the method:
The tests were done at Kearney Agriculture Research and Extension Center, Parlier, CA (Fresno County) and Armstrong Plant Pathology Field Station at University of California, Davis, CA. Susceptible grapevine cultivars were tested—Sauvignon Blanc at Kearney and Chenin Blanc at Davis. In both cases, the Stihl backpack sprayer SR450 was used and sprayer calibration, and normalization was performed to ensure equal doses of treatment applied to each replicate. During the trial period, vines were irrigated by drip irrigation and the regular maintenance of weeding, herbicide and insecticide treatments were done by the Kearney or Davis site field staff. In early season, 2.0 gallons/5 replicates and in mid to late season 2.5 to 3.0 gallons/5 replicates were sprayed. All appropriate personal protective equipment (PPE) was used and required training was completed including pesticide application training and heat exhaustion training. A randomized block design was used with 5 replicates for each treatment. Two adjacent vines were used as one experimental unit and the area between two trunks (yellow box) was sprayed and assessed (FIG. 16).
The trial was conducted at Kearney Agricultural Research and Extension Center, Parlier, CA on blocks of the susceptible white wine variety Sauvignon Blanc. Total of 5 different gene targets from grapevine powdery mildew E. necator, EnCYP51 (SEQ ID NO:182), EnLIP1 (SEQ ID NO:183), EnICL2 (SEQ ID NO:186), EnMS (SEQ ID NO:188) and EnAPG9 (SEQ ID NO:208) were tested at this site by backpack spraying of the experimental units with dsRNA designed specifically against these target genes. The treatments were placed in a randomized block design with 5 replicates of each (dsRNA treatments 1-5), 5 replicates of Gold Standard (GS) and 5 replicates of untreated control (UT Control). Gold Standard refers to the pesticides normally used by growers to control powdery mildew: Sulfur and other chemical fungicides such as Rally, Quintec, and Luna. Between each treatment replicate, consisting of two vines, there was a spacer vine to avoid the spray drift from one treatment another.
FIG. 17 provides an overview of the treatment schedule at Kearney. A total of 4 treatments of dsRNA were performed between May and July, replacing the 4 final treatments of the GS. Data were collected at the times marked by the gray dots in FIG. 17. The monitoring of powdery mildew index data and manual scouting of disease in the field was used to adjust timing schedule per standard protocol (www2.ipm.ucanr.edu/weather/grape-powdery-mildew-risk-assessment-index/?src=redirect2refresh).
The total number of bunches per replicate (mean of 130) and the bunches with powdery mildew growth were counted and percent of infected bunches per replicate was calculated.
Disease severity was calculated by counting the number of infected berries compared to total berries in a bunch. 25 bunches from both sides of the canopy were assessed per replicate.
This trial was conducted at University of California Davis Plant Pathology Armstrong Facility on white wine variety Chenin Blanc. A total of 4 different gene targets from grapevine powdery mildew E. necator, EnLIP1 (Seq ID No:183), EnICL2 (Seq ID 186), EnMS (Seq ID No:188) and EnAPG9 (Seq ID No:208) were tested at this site by treating the vines with dsRNA designed against these target genes. A randomized block design with 5 replicates of each (treatments 1-5) and 5 replicates of untreated control (UT Control) was utilized. Spray protocols and spray volumes were the same as done by Akif Eskalen's team as shown on this link (Elfar et al. 2021, ucanr.edu/sites/eskalenlab/files/355630.pdf) and in Table 10. Eskalen's lab performed 3rd party commercial fungicide trials for the industry.
In this field trial, a total of 3 sprays of dsRNA were performed between May and early June (FIG. 21). For the dsRNA treatments, no parallel chemical treatments were performed prior to the dsRNA treatments. […]

Series [2] relates to E. necator. Kind of series: SIGS, E. necator spore production on V. vinifera (whole plant and leaf disc assays). The series is classed as in vivo, Erysiphe necator. The conditions noted are these: for visual powdery mildew coverage and density: V. vinifera leaves, 9 days post infection, vs buffer alone; for reduction in spore production: long dsRNA. From the text: Spore suspension concentrations were normalized to the input tissue weight (g) before being normalized to the control.
Spore suspension concentrations were normalized to the input tissue weight (g) before being normalized to the control. CYP51 is included as a positive control gene required for growth. Error bars±SEM. *p<0.05 by Student's T-Test (unpaired, 2-tailed) compared to control.
With SIGS methods optimized and gene targets identified, we sought to translate these methods and targets to grape powdery mildew (FIG. 2). New long dsRNAs were designed for each target tested as there is significant sequence divergence between G. orontii MGH1 and E. necator c. First, procedures were optimized for the grapevine system by silencing CYP51. Spore production was reduced by 62% and 45% in grapevine whole plant and leaf disc assays, respectively when treated with long dsRNA against the same region of CYP51 as dsRNA-1 against G. orontii MGH1 CYP51 (FIG. 2; FIG. 7, panel a). […] We tested SIGS against the effective targets including AATF in the grapevine system, as we were interested in ascertaining whether they would show a statistically significant difference in grape powdery mildew spore production. […] The average reduction of powdery mildew spore production for SIGS against CYP51 and AATF was greater in E. necator compared to G. orontii (FIG. 4 and FIG. 7). One notable difference is G. orontii has 2 copies each of CYP51 and AATF while E. necator has 1 copy of each of these genes. SIGS against the other effective targets also were effective in reducing powdery mildew of grapevine (FIG. 7).
As the full G. orontii MGH1 OEC60/OEC61 is conserved in other powdery mildews (Table 6) and has the potential to interact with both TCP13 and TCP14, we tested whether findings in the G. orontii MGH1-Arabidopsis pathosystem can translate to an agriculturally important pathosystem, powdery mildew of grapevine. To do so, we identified an OEC60/OEC61 homolog in E. necator c (Jones et al., 2014) and designed a long dsRNA to target this gene in the same region effective for G. orontii. Targeting of OEC60/OEC61 in Erysiphe necator by SIGS reduces grape powdery mildew production on V. vinifera leaves to 71% of control treated plants (FIG. 12), similar to the reduction seen with the Arabidopsis powdery mildew (FIG. 10, panel d).

B1: EnMS: dsRNA against E. necator Malate synthase (target SEQ ID NO:188) (nucleic acid)
chain: TACAAGCTCAGATCAGACCGAAAACTTCCAACGCTTATTATAAGACCTCGTGGCTGGCACTTAGATGAGAAACATGTAACTATTGAAGGAGAGCCAATATCCGGCTCTCTATTCGATTTTGGACTATACTTTTTTCACAATGCCAAAGAACTGATAAAACGAGACTTAGGGCCCTACTTTTATCTTCCAAAGATGGAATCTTATCTAGAAGCCCGTCTTTGGAATGATGTCTTCAACCTAGCACAGGACTATATTGGTATTTCTCGTGGAACTATACGCGCTACAGTTCTAATTGAAACCATACTTGCTGCATTTGAAATG
modifications: misc_feature 1..321: note = Inhibitory double stranded RNA; listed as RNA
As to B1, in series [1] (Armstrong site), the “powdery mildew disease incidence” value is given as about 20% and the “mean disease severity (percent of berries with powdery mildew per bunch)” value is reported as 2%.

B2: EnLIP1: dsRNA against E. necator TAG lipase 1 (target SEQ ID NO:183) (nucleic acid)
chain: ATTAATACTGGTGCTGTACAGCGCCTATTACACATTAATGAGGACTGTTTAACTGTCACTGTTCAAAAACCATCATATGCGACTCCCGACTCTAAGTTTCCTGTCGTGTTCTCTCTATTTTTTGGAGGGTTTGGTTTTGGTTCAACGGCAATATATGATGCCTCTAAACTTATTCAAGCAGGTATCAATGCAGGTAAACCTATCGTCTACGTTGCTGTAAATTATCGTTTGGGTGCATTTGGATGGCTTGGAGGAAGAGAAATTAAAGAGGCAGGTCTCGCTAATCTTGGCCATTACG
modifications: misc_feature 1..298: note = Inhibitory double stranded RNA; listed as RNA
B2: in series [1] (Armstrong site), the “powdery mildew disease incidence” value was about 20% and the “mean disease severity (percent of berries with powdery mildew per bunch)” value was found to be 1%.

B3: EnCYP51: long dsRNA against E. necator CYP51 (target SEQ ID NO:182) (nucleic acid)
chain: TGTCAACGCCGAAGAGATTTACACTAATTTAACAACTCCGGTCTTTGGAAGAGATGTTGTATTTGATTGTCCAAATTCCAAACTCATGGAACAAAAAAAGTTTATGAAAACGGCTCTTACCATTGAAGCGTTCCATTCCTATGTAACAATAATACAAAATGAAGTAGAGGCATATATAAACAATTGCGTTAGCTTTCAGGGTGAGAGTGGCACAGTAAACATCTCAAAAGTTATGGCGGAAATCACTA
modifications: misc_feature 1..248: note = Inhibitory double stranded RNA; listed as RNA
Consider B3, for which the “visual powdery mildew coverage and density” value in series [2] was “Less powdery mildew density”; in series [2] (listed as E. necator CYP51 dsRNA), “less powdery mildew coverage and density”. Moreover, the results for the “reduction in spore production” value in series [2] (grapevine leaf disc assay) and in series [2] (grapevine whole plant assay) were 45% and 62%, respectively.

B4: EnAPG9: dsRNA against E. necator Autophagy protein Apg9 (target SEQ ID NO:208) (nucleic acid, listed as Golovinomyces orontii)
chain: ATGCCGTCTATCCCCATCACTATCATTACTGGCTTTCTAGGGTCTGGTAAAACAACTCTCCTTCTCAATATTCTTCCTCAAATACTTGCCAAGAATCCGAAATATAAATTAGCGCTTCTCAAAAATGAATTTGGAGATTTGGCTGTCGATAGTCAACTTGCAGGCTCTTCTATCACTGGTGTTCGTGAGATTCTAAATGGCTGCATTTGCTGTAACCTCGTCGGCTCTCTCTCATCGGCCCTTGAGGAGCTCACAGAGAGTATTTCTCCCGACCGAATAGTGATTGAAACGTCTGGGTCAGCATTCCCTGCAACGCTAGCTATGGAGGTTAATCGACTAGCGCGGGAGACCCAGGGTAAATATGTTCTAGATGGTGTAGTGACTGTTATTGATGTCGAAAACTGGAAGGGATATGAAGATACTAGCTTTACCGCACGATTACAAGCTCGTTACACAGATCTTGTTGTTTTTAATAAGTGGGAGGATGTTGGTGAAAGGAGGTGGGACGAATGTTTAGATCGACTGGGTGATATGGAGGTTGAAATTCCATGGGTTAAGAGTCAGAGGGGATTTGTTGATATGGATATTATCTTTGGCCTTGATGGAGGACTAGCAAAAGAATTAGAGGGAGAAGTAGAGCAAGGCCTACATCAGCAAAAAAAAACGCACAAGGACGGCGAAAGTCACCAGAACGAGGTTGAGGTACTTTCTGTCACCCTTTCTAAAAAATCTGATATCTCCTCGACCATTACACGTCCGAATTCAGAGCTTACCCCAAAAATTGATACTGATGCTCTGCTGAAACTTCTCCAAACAGCACCCAAGGACGAGGTCTACCGGATAAAGTCAATCTTTACTTCTTCTACACCTATGCCTTCATCTACTCCTATATCATCTTCAGATCTATCAGAAACGCCAGTGTCTTCAGTTGCTGGCCCAAATAAATACATTCTAAATTGGTCATTTGGTCGCTGGACCTGCACACCTATGCCCTCCACTAATTCTTCAACCACAGGAGACAGCTTTGAGCACCCATCTAGCGAGGCCGTAGGTCAAGGAGAAGTTTTCCTTCGCATGATTATAATTCTCTCAAGAGGTGCTGGTAAGAAATGGAAAAAAAGACTTGAGGATGGAGGTTTTATACGTTTCAAGGGTGTGGCCGGAACCGACGTACAGAATTTAAATGTTGTTCCCATCAGTTAA
modifications: listed as DNA
Turning to B4, in series [1] (Armstrong site), the “powdery mildew disease incidence” value was about 20% and the “mean disease severity (percent of berries with powdery mildew per bunch)” value was 1%. Moreover, in series [1] (Armstrong site, FIG. 22 panel B), the “fold by which average disease incidence of untreated control increases faster than that of the dsRNA treatment (slopes)” value is on record as 2.74 fold. In series [1] (Armstrong site, July 16, more than six weeks after dsRNA treatments), this molecule came in with a mean disease incidence of 24%. In series [1] (topical spraying, vineyard field trials 2021, trial sites in California), the “powdery mildew infection / disease in vineyard” value is on record as “effective”.
